Molecular target: wild-type rabbit PrP 121–230 (rabbit)
Experiment: SEC

Chain of wild-type rabbit PrP 121–230 (domain or fragment) (Q95211 119-229 limits assumed): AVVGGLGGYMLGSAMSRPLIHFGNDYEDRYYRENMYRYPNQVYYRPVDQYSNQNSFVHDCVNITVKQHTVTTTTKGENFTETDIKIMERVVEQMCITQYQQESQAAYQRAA

wild-type rabbit PrP 121–230 (domain or fragment)
percent octamer after 4 hours: 33%
stoichiometry N: 8

Source: PMC3651167
